The text below walks through data of article PMC10872586 (Cell reports, 2023).

Substitutions are numbered along the chain they refer to.

One assay has as its target mini-HA #4900 protein (Designed influenza A H1 HA stem #4900 …, stabilised, biotin at the BirA biotinylation site, conjugated to streptavidin-PE (for the yeast display assays only)). The assay can be described thus: BLI. The note with it: both partners purified.
In assay [1] the target is HA protein from H1N1 A/Solomon Islands/3/2006 (Influenza A virus (A/Solomon …, UniProt A7Y8I1, strain)). The assay can be described thus: BLI. The note with it: both partners purified.

B1: CR9114 Fab (positive control) (Fab, V domains shown)
VH: QVQLVQSGAEVKKPGSSVKVSCKSSGGTSNNYAISWVRQAPGQGLDWMGGISPIFGSTAYAQKFQGRVTISADIFSNTAYMELNSLTSEDTAVYFCARHGNYYYYSGMDVWGQGTTVTVSS
VL: QSALTQPPAVSGTPGQRVTISCSGSDSNIGRRSVNWYQQFPGTAPKLLIYSNDQRPSVVPDRFSGSKSGTSASLAISGLQSEDEAEYYCAAWDDSLKGAVFGGGTQLTVL
notes: source: Expi293F, co-transfected, purified (CaptureSelect CH1-XL)
For orientation: Kd means the free concentration of one partner at which half of the binding sites on the other are occupied at equilibrium, for simple one-to-one binding. Read a low Kd as a tighter complex. For B1, the Kd with mini-HA #4900 protein came to 0.69 nM.

B2: CR9114 gHC Fab VL A96W (Fab, V domains shown)
VH: QVQLVQSGAEVKKPGSSVKVSCKASGGTFSSYAISWVRQAPGQGLEWMGGIIPIFGTANYAQKFQGRVTITADKSTSTAYMELSSLRSEDTAVYYCARHGNYYYYYGMDVWGQGTTVTVSS
VL: B1 VL with Q1S, S2Y, A3V, A99W
notes: Kabat numbering; source: Expi293F, co-transfected, purified (CaptureSelect CH1-XL)
Turning to B2, the binding result in assay [1] is on record as “no binding (tested: 300 nM)”.

B3: CR9114 gHC Fab VL W91A (Fab, V domains shown)
VH: B2 VH
VL: B1 VL with Q1S, S2Y, A3V, W92A
notes: as for B2
With B3, the binding result in assay [1] was “no binding (tested: 300 nM)”.

B4: CR9114 gHC Fab VL W91T (Fab, V domains shown)
VH: B2 VH
VL: B1 VL with Q1S, S2Y, A3V, W92T
notes: as for B2
For the molecule B4, in assay [1], the binding result is given as “no binding (tested: 300 nM)”.

B5: CR9114 gHC Fab VL W91R (Fab, V domains shown)
VH: B2 VH
VL: B1 VL with Q1S, S2Y, A3V, W92R
notes: as for B2
As to B5, in assay [1], the binding result was “no binding (tested: 300 nM)”.

B6: CR9114 with germline heavy chain, Fab (Fab, V domains shown)
VH: B2 VH
VL: B1 VL with Q1S, S2Y, A3V
notes: also called CR9114 gHC; WT; source: Expi293F, co-transfected, purified (CaptureSelect CH1-XL)
Take B6: in assay [1], binding was characterised by a dissociation constant (Kd) of 2600 nM. That is a single-digit micromolar value.

B7: CR9114 gHC Fab VL A96Y (Fab, V domains shown)
VH: B2 VH
VL: B1 VL with Q1S, S2Y, A3V, A99Y
notes: as for B2
As to B7, in assay [1], the binding result is recorded as “no binding (tested: 300 nM)”.

B8: CR9114 gHC Fab VL A96F (Fab, V domains shown)
VH: B2 VH
VL: B1 VL with Q1S, S2Y, A3V, A99F
notes: as for B2
With B8, in assay [1], the binding result is listed as “no binding (tested: 300 nM)”.
